In publication doi:10.1101/2022.09.21.508879:
One block for each substance: values may come before it.

Tests used:
[1] = target: Chlamydomonas reinhardtii CFAP410 C-terminal domain, mutant A219E (Chlamydomonas reinhardtii); assay: SEC-MALS
[2] = target: Chlamydomonas reinhardtii CFAP410 C-terminal domain, wild type (Chlamydomonas reinhardtii); assay: crystal structure
[3] = target: Chlamydomonas reinhardtii CFAP410 C-terminal domain, wild type (Chlamydomonas reinhardtii); assay: SEC-MALS
[4] = target: Homo sapiens CFAP410 C-terminal domain, wild type (Homo sapiens) (UniProt O43822); assay: crystal structure
[5] = target: Trypanosoma brucei CFAP410 C-terminal domain, wild type (Trypanosoma brucei); assay: crystal structure

Substance: Chlamydomonas reinhardtii CFAP410 C-terminal domain, mutant A219E (peptide)
stoichiometry N [1]: 2

Substance: Chlamydomonas reinhardtii CFAP410 C-terminal domain, wild type (peptide)
stoichiometry N [2]: 4
stoichiometry N [3]: 4

stoichiometry N [4]: 4
Substance: Homo sapiens CFAP410 C-terminal domain, wild type (from UniProt O43822 212-246) (peptide)

Substance: Trypanosoma brucei CFAP410 C-terminal domain, wild type (peptide)
stoichiometry N [5]: 4
